Results as given in patent publication US20180030135A1, “HUMAN MONOCLONAL ANTIBODIES AGAINST OREXIN RECEPTOR TYPE 1” (INSERM (INSTITUT NATIONAL DE LA SANTÉ ET DE LA RECHERCHÉ …, priority 2015, published 2018).

T1: rat OX1R (rat, UniProt P56718 1-416)
T1 construct: whole, on cells; also called CHO-ratOX1R; OX1R of rat
T1 sequence (looked up): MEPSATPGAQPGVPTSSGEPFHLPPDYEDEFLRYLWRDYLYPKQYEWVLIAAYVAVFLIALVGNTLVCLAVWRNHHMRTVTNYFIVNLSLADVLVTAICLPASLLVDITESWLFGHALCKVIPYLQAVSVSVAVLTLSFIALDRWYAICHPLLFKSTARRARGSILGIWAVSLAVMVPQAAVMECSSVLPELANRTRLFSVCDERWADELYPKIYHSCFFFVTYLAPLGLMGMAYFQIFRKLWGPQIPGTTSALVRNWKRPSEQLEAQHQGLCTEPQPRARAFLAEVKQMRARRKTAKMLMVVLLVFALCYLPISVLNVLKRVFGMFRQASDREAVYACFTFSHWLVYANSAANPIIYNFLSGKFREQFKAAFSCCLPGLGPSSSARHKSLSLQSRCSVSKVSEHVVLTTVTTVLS

T2: orexin receptor type 1 (OX1R) (human, UniProt O43613 1-425)
T2 construct: whole, on cells; also called HCTR1; hypocretin receptor type 1
T2 sequence (looked up): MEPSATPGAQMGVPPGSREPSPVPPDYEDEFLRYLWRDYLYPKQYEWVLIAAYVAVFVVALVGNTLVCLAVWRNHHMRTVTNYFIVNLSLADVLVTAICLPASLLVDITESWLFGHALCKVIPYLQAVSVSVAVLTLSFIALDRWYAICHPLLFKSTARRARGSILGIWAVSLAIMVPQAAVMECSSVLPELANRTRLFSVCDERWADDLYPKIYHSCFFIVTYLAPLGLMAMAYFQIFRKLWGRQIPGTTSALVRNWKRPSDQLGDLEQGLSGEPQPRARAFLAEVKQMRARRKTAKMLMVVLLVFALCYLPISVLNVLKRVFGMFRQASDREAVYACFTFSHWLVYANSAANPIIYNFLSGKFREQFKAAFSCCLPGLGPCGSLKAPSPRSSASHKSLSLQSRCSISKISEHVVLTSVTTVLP

T3: mouse OX1R (mouse, UniProt P58307 1-416)
T3 construct: whole, on cells; Legend says HEK-mouseOX1R, the text says CHO cell lines transfected with OX1R of mouse or rat; also called HEK-mouseOX1R; OX1R of mouse
T3 sequence (looked up): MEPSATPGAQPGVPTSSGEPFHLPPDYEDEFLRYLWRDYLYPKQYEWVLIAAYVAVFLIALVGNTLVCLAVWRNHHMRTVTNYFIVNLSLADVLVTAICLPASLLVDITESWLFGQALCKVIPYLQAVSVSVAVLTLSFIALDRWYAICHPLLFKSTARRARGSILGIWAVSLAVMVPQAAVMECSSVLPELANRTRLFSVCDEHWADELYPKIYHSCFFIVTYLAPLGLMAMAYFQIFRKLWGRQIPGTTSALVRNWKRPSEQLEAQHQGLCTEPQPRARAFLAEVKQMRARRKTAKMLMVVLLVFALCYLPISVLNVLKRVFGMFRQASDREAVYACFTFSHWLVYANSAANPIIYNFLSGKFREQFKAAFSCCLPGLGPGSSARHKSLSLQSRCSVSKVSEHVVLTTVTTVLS

B1: C1 antibody (antibody, V domains shown)
VH: EVQLVESGGSLVKPGGSLRLSCAASGFTFSNYYMNWVRQAPGKGLEWISYISGSSRNIYYADFVKGRFTISRDNATNSLYLQMNSLRAEDTAVYYCVRSNYDGMDVWGRGTLVTVSS
VL: QSVLTQPASVSGSPGQSITISCAGTSSDVGGSNYVSWYQQHPGKAPKLMIYSDSYRPSGVSNRFSGSKSGNTASLTISGLQAEDEADYYCSSYTYYSTRVFGGGTKLAVLG
notes: Human anti-OX1R antibody from phage display
B2: C1: human monoclonal anti-OX1R antibody from phage display; VH SEQ ID NO:1, VL SEQ ID NO:2 (antibody, V domains shown)
VH: EVQLVESGGSLVKPGGSLRLSCAASGFTFSNYYMNWVRQAPGKGLEWISYISGSSRNIYYADFVKGRFTISRDNATNSLYLQMNSLRAEDTAVYYCVRSNYDGMDVWGRGTLVTVSS
VL: QSVLTQPASVSGSPGQSITISCAGTSSDVGGSNYVSWYQQHPGKAPKLMIYSDSYRPSGVSNRFSGSKSGNTASLTISGLQAEDEADYYCSSYTYYSTRVFGGGTKLAVLG
modifications: Synthetic VH sequence of C1; Synthetic VL sequence of C1

Assays:
rat OX1R = target: T1, rat OX1R; experiment: told from effects on cells transfected with rat OX1R (FIG. 4)
[1] = target: T2, orexin receptor type 1 (OX1R); experiment: competitive inhibition of 125I-OxA binding to HEK-OX1R cells
mouse OX1R = target: T3, mouse OX1R; experiment: told from effects on cells transfected with mouse OX1R (FIG. 4)
LoVo cells = experiment: Cell growth of colon cancer cell line LoVo; type: cell-based; conditions: 0.1 μM, 48 h
Procedure: (§1) A. SW48 and AsPC-1 cells. B. LoVo and HCT-116 cells. Cells were treated for 48 h with 0.1 μM of each compound and then cells were counted. Results were expressed as the percentage of untreated cell number (Control).
(§2) We have tested the ability of antibodies to inhibit the cellular growth in cancer cell lines derived from colon cancer (SW48, LoVo and HCT-116 cells) and pancreas cancer (AsPC-1 cells). […] D4 and H7 have a weak effect. […] As previously described (see above) orexins are able to induce a mitochondrial apoptosis in cancer cell lines. We test the ability of antibodies to induce apoptosis in HEK-OX1R cells and colonic cancer cell line LoVo. […] This effect was dose-dependent. Indeed when HEK-OX1R cells were treated with 0.01μM of C2 antibody, cell apoptosis was only of 6±0.7% of total cells.

AsPC-1 cells = experiment: Cell growth of pancreas cancer cell line AsPC-1; type: cell-based; conditions: 0.1 μM, 48 h
Procedure: as §1, §2

HEK-mouseOX1R = experiment: Cell growth / apoptosis of cells transfected with mouse OX1R; type: cell-based; conditions: 0.1 μM, 48 h, FIG. 4
Procedure: Cells were treated for 48 h with 0.1 μM of each compound and then cells were counted. Results were expressed as the percentage of untreated cell number (Control).
The development of antibodies directed against OX1R were produced by a phage display strategy and the antibody selection was performed by using HEK and HEK stably expressing OX1R (HEK-OX1R) cell lines. As a first step, a batch of 7 different antibodies named B4, B10, C1, C2, D4, E7 and H7 was tested for their ability to inhibit the cell growth of HEK-OX1R. […] In contrast, B4, B10, D4, E7 and. […] As previously described orexins (A & B) induced a mitochondrial apoptosis mediated by an entirely novel mechanism, not related to Gq-mediated phospholipase C activation. In fact, orexins induced the tyrosine phosphorylation of two immunoreceptor tyrosine-based inhibitory motifs (ITIMs) located in the OX1R sequence. The resulting phosphorylated receptor could then recruit and activate the phosphotyrosine phosphatase, SHP-2, which is responsible for mitochondrial apoptosis, involving cytochrome c release from mitochondria to cytosol and caspase-3 and caspase-7 activation. Here, we tested the effect of SHP inhibitor (NSC 87877) on the ability of anti-OX1R to inhibit the cellular growth of HEK-OX1R (FIG. 3).

SW48 cells = experiment: Cell growth of colon cancer cell line SW48; type: cell-based; conditions: 0.1 μM, 48 h
Procedure: as §1, §2

CHO-ratOX1R = experiment: Cell growth / apoptosis of cells transfected with rat OX1R; type: cell-based; conditions: 0.1 μM, 48 h, FIG. 4
[2] = test system: HEK-OX1R cells expressing recombinant OX1R; experiment: Apoptosis in HEK-OX1R cells (annexin V-PE binding, Guava nexin kit); type: cell-based, human; conditions: 0.1 μM, 48 h
[3] = test system: HEK-OX1R cells expressing recombinant OX1R; experiment: Cell growth of HEK-OX1R cells (cell counting); type: cell-based, human; conditions: 0.1 μM, 48 h

Row | Molecule | binding result (rat OX1R) | IC50 [1] [µM] | binding result (mouse OX1R) | cell growth inhibition in LoVo cells (LoVo cells) | cell growth inhibition in AsPC-1 cells (AsPC-1 cells) | promotion of apoptosis of cells transfected with OX1R of mouse (cross reaction) (HEK-mouseOX1R) | cell growth inhibition in SW48 cells (SW48 cells) | promotion of apoptosis of cells transfected with OX1R of rat (cross reaction) (CHO-ratOX1R) | apoptosis in HEK-OX1R cells, % of total cells [2] [%] | inhibition of HEK-OX1R cellular growth in the presence of SHP inhibitor NSC 87877 ([3]; 50 μM NSC 87877) | reduction of HEK-OX1R cell number (cellular growth inhibition) ([3]; cells counted, versus untreated cells)
1 | B1 | binds | ~5 | binds |  |  |  |  |  |  |  | 
2 | B2 |  |  |  | inhibit the cell growth in LoVo cells similarly to OxB | cell growth inhibition similar to OxB effect | able to promote apotosis | inhibit the cell growth in SW48 cells similarly to OxB | able to promote apotosis | 12±1 | totally reversed | about 46%±3
